Read-outs that look alike come from different tables or passages of the source.
Assays:
[1] = Plasma kinetics of 99mTc-cyclic AM and 99mTc-linear AM in dogs; assay type: in vivo, dog; conditions: two-compartment model
Experimental: The radiolabelled AM derivatives were injected in a volume of 1.5 mL into a right jugular vein catheter. A series of 200 μl blood samples were collected 1 min after the initial injection, then repeated every 5 min for a 30-min period. After each collection, an equal volume of saline was injected into the animal to maintain blood volume and pressure. The blood samples were then placed in a gamma counter (model 1470 Wizard, Wallac, Finland) to determine ^99mTc activity. Results were expressed as a percentage of total radioactivity injected.

[2] = dog, in vivo
Experimental: FIG. 16 illustrates in vivo single-pass measurement of purified ^99mTc linear hAM1-52 clearance in dogs. Dogs were anesthetized and a catheter was inserted into the carotid artery and positioned just above the aortic valve. This catheter is connected to a peristaltic pump for automated blood withdrawal. Another catheter is placed into the jugular vein and positioned in the right ventricular outflow tract to allow bolus injection of the study tracers. A bolus was prepared by adding 2 mCi of purified ^99mTc linear hAM1-52 to 3 ml of Evans blue dye labeled albumin and 0.9% saline for a final volume of 6 ml. A single bolus indicator-dilution experiment was performed. The collected samples were processed and indicator-dilution curves constructed and analysed. Mean tracer ^99mTc linear hAM1-52 AM extraction during the pulmonary transit time was computed from the curves. Mean tracer extraction corresponds to the difference between the areas of the outflow curve of the vascular reference (albumin) and that of the extracted tracer (^99mTc linear hAM1-52). Recirculation of the tracers apparent in the terminal portion of the curves is removed by linear extrapolation of the semi-logarithmic down slopes.

[3] = in vivo
From the text: FIGS. 18 and 19 illustrate respectively images of the lungs of a dog and a rat to which purified ^99mTc linear hAM1-52 has been administered.

[4] = dog, in vivo; remark: listed apart in the source
Experimental: Following intravenous injection, dynamic acquisition of the lungs, heart, liver and kidneys was recorded for a 30-min period (one frame/sec during the first minute, then one frame/min for the remaining time). Static acquisitions was also recorded for whole individual organs, including lungs, kidneys, liver, heart, bladder, gallbladder and muzzle, at 30, 60, 120, 240 minutes after initial injection. These recordings were performed both in ventral and dorsal positions. Dynamic and static acquisitions were evaluated by using Matlab version 7.01 image analysis tools software. The ^99mTc total count, ^99mTc mean count, and region of interest (ROI) size were calculated for each organ. Data correction was applied for 1) radioactive decay, 2) table correction (dorsal images only), 3) geometric mean, and 4) organ's attenuation based on transmission factor. Results were expressed as a percentage of total radioactivity injected.
The images were acquired using a Siemens dual hear Ecam Gamma camera 120 min after injection of the compound.

[5] = Kidney uptake of 99mTc-linear AM in rats with monocrotaline kidney damage; assay type: in vivo, rat; conditions: for kidney activity, % of total activity injected: external counting of the organs; for kidney uptake, % of total activity injected: external detection by gamma camera, 30 minutes
Experimental: Kidney damage was induced by a single intraperitoenal injection of monocrotaline 60 mg/kg in rats. Three weeks later the animal received were anaesthetized and mechanically ventilated. […] By both methods, the activity in the kidneys was expressed as a percentage of the total activity injected.

[6] = for plasma level: after 10 minutes
Experimental: The animals were anesthetized by an initial intra-muscular dose of xylazine (10 mg/kg) and ketamine (50 mg/kg), followed by an intraperitoneal injection of heparin (2000 U, Sigma Chemical Co.). Additional doses of xylazine/ketamine were used if noxious stimuli (hind feet pinching) could elicit nociceptive motor reflexes or changes of the systemic blood pressure.
99mTc-AM-L was injected in a volume of 200 μl (0.3 pmol, 0.5 mCi) into the right jugular vein.
Differences between groups were evaluated by two-tailed independent samples t-tests. Plasma kinetics of ^99mTc-AM-L were analyzed using a two compartments pharmacokinetic model with Prism v4.0 software and the fitted curves were compared using an F test. All values are reported as means±standard deviations.

[7] = rat, in vivo
From the text: The animals were then sacrificed and the lungs, liver, kidneys (en bloc with the adrenal glands) and heart were removed and gravity drained.

[8] = dog, in vivo, iv
Experimental: Following intravenous injection of linear ^99mTc hAM1-52, dynamic acquisition of the lungs, heart, liver and kidneys was recorded for a 30-min period (one frame/sec during the first minute, then one frame/min for the remaining time). Static acquisitions were also recorded for whole individual organs, including lungs, kidneys, liver, heart, bladder, gallbladder and muzzle, at 30, 60, 120, 240 minutes after initial injection. These recordings were performed both in ventral and dorsal positions. Dynamic and static acquisitions were evaluated by using Matlab version 7.01 image analysis tools software. The ^99mTc total count, ^99mTc mean count, and region of interest (ROI) size were calculated for each organ. Data correction was applied for 1) radioactive decay, 2) table correction (dorsal images only), 3) geometric mean, and 4) organ's attenuation based on transmission factor. Results were expressed as a percentage of total radioactivity injected.

CC[C@H](C)[C@H](NC(=O)[C@H](CCC(N)=O)NC(=O)[C@H](Cc1c[nH]cn1)NC(=O)[C@H](C)NC(=O)[C@H](CC(C)C)NC(=O)[C@H](CCCCN)NC(=O)[C@H](CCC(N)=O)NC(=O)[C@@H](NC(=O)[C@@H](NC(=O)[C@@H]1CSSC[C@H](NC(=O)CNC(=O)[C@H](Cc2ccccc2)NC(=O)[C@H](CO)NC(=O)[C@H](CCCNC(=N)N)NC(=O)[C@H](CC(C)C)NC(=O)CNC(=O)[C@H](CCC(N)=O)NC(=O)[C@H](Cc2ccccc2)NC(=O)[C@H](CC(N)=O)NC(=O)[C@H](CC(N)=O)NC(=O)[C@H](CCSC)NC(=O)[C@H](CO)NC(=O)[C@H](CCC(N)=O)NC(=O)[C@H](CCCNC(=N)N)NC(=O)[C@H](Cc2ccc(O)cc2)NC(=O)CN(CCN(CCN(CC(=O)O)CC(=O)O)CC(=O)O)CC(=O)O)C(=O)N[C@@H](CCCNC(=N)N)C(=O)N[C@@H](Cc2ccccc2)C(=O)NCC(=O)N[C@@H]([C@@H](C)O)C(=O)N1)[C@@H](C)O)C(C)C)C(=O)N[C@@H](Cc1ccc(O)cc1)C(=O)N[C@@H](CCC(N)=O)C(=O)N[C@@H](Cc1ccccc1)C(=O)N[C@H](C(=O)N[C@@H](CC(=O)O)C(=O)N[C@@H](CCCCN)C(=O)N[C@@H](CC(=O)O)C(=O)N[C@@H](CCCCN)C(=O)N[C@@H](CC(=O)O)C(=O)N[C@@H](CC(N)=O)C(=O)N[C@H](C(=O)N[C@@H](C)C(=O)N1CCC[C@H]1C(=O)N[C@@H](CCCNC(=N)N)C(=O)N[C@@H](CO)C(=O)N[C@@H](CCCCN)C(=O)N[C@H](C(=O)N[C@@H](CO)C(=O)N1CCC[C@H]1C(=O)N[C@@H](CCC(N)=O)C(=O)NCC(=O)N[C@@H](Cc1ccc(O)cc1)C(N)=O)[C@@H](C)CC)C(C)C)[C@@H](C)O [^99mTc-cyclic AM, metal not drawn]
distribution half-life [1]: less than two min

^99mTc-linear AM: linear hAM(1-52) labelled directly with 99mTc
mean single pass extraction by the lung [2]: 21%
reduction in kidney uptake after MCT (MCT versus control rats): about 50%
heart uptake, ex vivo (PAH (MCT) rats): 0.77±0.46 % ID
lung uptake, in vivo biodistribution (PAH (MCT) rats, gamma camera, 30 minutes): 4±1%
lung retention, ex vivo (PAH (MCT) rats, gamma counter, 30 minutes): 3±1%
reduction in lung uptake in PAH (PAH versus control rats): ~70%
heart uptake, ex vivo (rat, in vivo): 0.18±0.03 % ID
lung retention, ex vivo (rat, in vivo): 11±2 % ID
liver, kidney and bladder activities, MCT group compared to control group (rats, 30 minutes): increased liver uptake but lower kidney and bladder activities
pulmonary uptake, image ([3]; dog): relatively specific and homogeneous pulmonary uptake
pulmonary uptake, image ([3]; rat): relatively specific and homogeneous pulmonary uptake
kidney retention [4]: 20-30%
kidney retention, whole body imaging [4]: significantly retained by the kidney
kidney activity, % of total activity injected ([5]; control rats): 27%±6%
kidney uptake, % of total activity injected ([5]; control rats): 23%±3%
kidney activity, % of total activity injected ([5]; monocrotaline treated rats): 11%±7%
kidney uptake, % of total activity injected ([5]; monocrotaline treated rats): 10%±6%
plasma level ([6]; PAH (MCT) rats): 2.08±0.65 % ID
plasma level ([6]; control rats): 1.25±0.28 % ID
plasma levels in PAH compared to control animals ([6]; fitted curves, rats): approximately two-fold higher
lung retention [7]: significantly retained by lungs
route of elimination [7]: eliminated by the kidneys (mostly) and the liver
thyroid uptake [7]: minimal
time for which lung uptake is maintained [7]: at least 1 hour
lung retention [8]: 24%

— US9062123B2, “Labelled adrenomedullin derivatives and their use for imaging and therapy” (PLUMOSCIENCE INC., priority 2004, dated 2015)
